From EP2922560B1 (Biotechnologicky Ustav AV CR, v.v.i., dated 2017) come the findings set out here.

Experiment [1] concerns the target T1, recombinant human IL-23R-IgG chimera (R&D Systems) (human, UniProt Q5VWK5 24-353, glycosylated).
T1 construct: bought; soluble, glycosylated, secreted by an NS0-derived mouse myeloma cell line; also called IL-23R-IgG receptor chimera
Kind of experiment: SPR, REX125-TolA-AVI immobilized, IL-23R-IgG chimera flowed, sodium acetate buffer pH 5.0, 25°C; more complex interaction mode.

In experiment [2] the target is T2, native human IL-23 receptor on the surface of cultured human cells (K-562, THP-1, Jurkat) and primary human … (human, UniProt Q5VWK5 24-629).
T2 sequence (looked up): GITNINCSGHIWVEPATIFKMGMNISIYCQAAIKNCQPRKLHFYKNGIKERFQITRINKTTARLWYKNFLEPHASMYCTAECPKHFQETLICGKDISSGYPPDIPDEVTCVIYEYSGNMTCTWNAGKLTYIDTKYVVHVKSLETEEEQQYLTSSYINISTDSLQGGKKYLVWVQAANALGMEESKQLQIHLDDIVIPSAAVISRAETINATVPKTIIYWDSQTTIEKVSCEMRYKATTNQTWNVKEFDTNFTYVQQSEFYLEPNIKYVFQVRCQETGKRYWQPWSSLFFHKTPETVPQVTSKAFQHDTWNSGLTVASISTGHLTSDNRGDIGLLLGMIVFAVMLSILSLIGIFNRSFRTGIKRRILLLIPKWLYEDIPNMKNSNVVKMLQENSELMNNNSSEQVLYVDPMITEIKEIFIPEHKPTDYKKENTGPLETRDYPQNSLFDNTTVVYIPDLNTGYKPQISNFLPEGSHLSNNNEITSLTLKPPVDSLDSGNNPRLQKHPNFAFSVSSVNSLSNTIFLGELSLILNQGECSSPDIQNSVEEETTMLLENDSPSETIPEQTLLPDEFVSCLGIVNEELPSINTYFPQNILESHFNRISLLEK
Kind of experiment: cell-based or functional assay.

The target in experiment [3] is T1, recombinant human IL-23R-IgG chimera …. Kind of experiment: SPR, REX009-TolA-AVI immobilized, IL-23R-IgG chimera 20-200 nM flowed, sodium acetate buffer pH 5.0, 25°C, 1:1 model, global fit.
In experiment [4] the target is T3, H-exIL-23R, N-terminally His6-tagged extracellular domain of human IL-23 receptor (residues 24 to 350) (human, UniProt Q5VWK5 24-350).
T3 construct: range 24-350; also called recombinant extracellular IL-23 receptor; not shown: N-terminal His6 tag
T3 sequence (looked up): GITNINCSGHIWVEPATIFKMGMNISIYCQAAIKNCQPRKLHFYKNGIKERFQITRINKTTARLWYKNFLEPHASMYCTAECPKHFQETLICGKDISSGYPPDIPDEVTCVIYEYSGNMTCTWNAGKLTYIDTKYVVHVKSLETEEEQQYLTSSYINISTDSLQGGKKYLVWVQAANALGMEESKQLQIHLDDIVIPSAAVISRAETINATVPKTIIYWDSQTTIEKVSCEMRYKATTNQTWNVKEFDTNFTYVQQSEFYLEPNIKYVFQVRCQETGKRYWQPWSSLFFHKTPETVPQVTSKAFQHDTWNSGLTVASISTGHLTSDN
Kind of experiment: ELISA, immobilized exIL-23R (Figure 1 legend).

For experiment [5], the target named is T3, H-exIL-23R, N-terminally His6-tagged …. Kind of experiment: ELISA, immobilized H-exIL-23R; confirmed in the reversed setup.
Experiment [6] addresses T2, native human IL-23 receptor on the …. Kind of experiment: flow cytometry on THP-1 and K-562 cells, 10 µg/ml DH-p19, anti-p19 mAb and Cy5 anti-mouse IgG.

Substitutions are numbered along the chain they refer to.

B1: His6-REX125-TolA-AVI (designed binder)
chain: LAEAKVLANRELDKYGVSDHYKNWINPARRVRPVKWLIDAILAALPQKQAEEAAAKAAADAKAKAEADAKAAEEAAKKAAADAKKKAEAEAAKAAAEAQKKAEAAAAALKKKAEAAEAAAAEARKKAATEAAEKAKAEAEKKAAAEKAAADKKAAAEKAAADKKAAEKAAAEKAAADKKAAAEKAAADKKAAAAKAAAEKAAAAKAAAEADDIFGELSSGKNAPKTGGGAKGNNASPAGSGNTKNNGASGADINNYAGQIKSAIESKFYDASSYAGKTCTLRIKLAPDGMLLDIKPEGGDPALCQAALAAAKLAKIPKPPSQAVYEVFKNAPLDFKPGLNDIFEAQKIEWHE
modifications: in vivo biotinylated at the AviTag (BirA)
notes: also called REX-TolA-AVI; not shown: N-terminal His6 tag
For the molecule B1, the Kd in experiment [1] was about 1 nM. For the same molecule, in experiment [2], the “Th-17+ cell expansion (IL-17-producing cells) in PBMC suspensions after 3 days, normalized to IL-23 only = 1” value was 0.42 normalized cell count (IL-23 only = 1) and the “Th-17+ cell expansion in separated T-cell samples after 3 days, normalized to IL-23 only = 1” value is 0.65 normalized cell count (IL-23 only = 1).

B2: His6-REX115-TolA-AVI (designed binder, not shown: small tags and cut ends)
chain: B1 chain with H20V, W24T, P27I, R29I, R30P, P33V, W36R, L37V, A40W, A44V
modifications: in vivo biotinylated at the AviTag (BirA)
Take B2: in experiment [2], the “Th-17+ cell expansion (IL-17-producing cells) in PBMC suspensions after 3 days, normalized to IL-23 only = 1” value is 0.55 normalized cell count (IL-23 only = 1) and the “Th-17+ cell expansion in separated T-cell samples after 3 days, normalized to IL-23 only = 1” value was 0.69 normalized cell count (IL-23 only = 1).

B3: His6-REX009-TolA-AVI (designed binder)
chain: B1 chain with H20Y, W24R, R29C, R30H, R32L, P33S, W36S, L37N, A40W, A44S
modifications: in vivo biotinylated at the AviTag (BirA)
notes: as for B1
Turning to B3, in experiment [2], the “Th-17+ cell expansion (IL-17-producing cells) in PBMC suspensions after 3 days, normalized to IL-23 only = 1” value is 0.62 normalized cell count (IL-23 only = 1) and the “Th-17+ cell expansion in separated T-cell samples after 3 days, normalized to IL-23 only = 1” value is 0.8 normalized cell count (IL-23 only = 1). For the same molecule, the Kd in experiment [3] amounted to 1.3 nM.

B4: DH-MBP-p19, double His6-maltose-binding protein-p19 fusion with C-terminal 40 aa prolongation (ligand, human)
chain: RAVPGGSSPAWTQCQQLSQKLCTLAWSAHPLVGHMDLREEGDEETTNDVPHIQCGDGCDPQGLRDNSQFCLQRIHQGLIFYEKLLGSDIFTGEPSLLPDSPVGQLHASLLGLSQLLQPEGHHWETQQIPSLSPSQPWQRLLLRFKILRSLQAFVAVAARVFAHGAATLSPLEKKTCTSRASSTTTTTTEIRLLTKPERKLSWLLPPLSNN
notes: 69 kDa, soluble, E. coli BL21(DE3), Ni-NTA purified; also called soluble p19; p19-MBP fusion protein; not shown: N-terminal double His6 tag; followed by TEV site and cloning-site residues that are not pri
Take B4: the binding result in experiment [4] is reported as “binds”.

B5: DH-p19, mature p19 subunit of human IL-23 with N-terminal double-His6-TEV tag (ligand, UniProt Q9NPF7 20-189, looked up)
chain: RAVPGGSSPAWTQCQQLSQKLCTLAWSAHPLVGHMDLREEGDEETTNDVPHIQCGDGCDPQGLRDNSQFCLQRIHQGLIFYEKLLGSDIFTGEPSLLPDSPVGQLHASLLGLSQLLQPEGHHWETQQIPSLSPSQPWQRLLLRFKILRSLQAFVAVAARVFAHGAATLSP
notes: mature; not shown: N-terminal double-His6-TEV purification tag
On to B5, for which the binding result in experiment [5] and in experiment [6] was “binds” each time.
